Article PMC10539301

Biological target: ATAD2 Walker B mutant (E532Q), aa 403-1390 (human) (UniProt Q6PL18)
Sequence (Q6PL18 403-1390 E532Q): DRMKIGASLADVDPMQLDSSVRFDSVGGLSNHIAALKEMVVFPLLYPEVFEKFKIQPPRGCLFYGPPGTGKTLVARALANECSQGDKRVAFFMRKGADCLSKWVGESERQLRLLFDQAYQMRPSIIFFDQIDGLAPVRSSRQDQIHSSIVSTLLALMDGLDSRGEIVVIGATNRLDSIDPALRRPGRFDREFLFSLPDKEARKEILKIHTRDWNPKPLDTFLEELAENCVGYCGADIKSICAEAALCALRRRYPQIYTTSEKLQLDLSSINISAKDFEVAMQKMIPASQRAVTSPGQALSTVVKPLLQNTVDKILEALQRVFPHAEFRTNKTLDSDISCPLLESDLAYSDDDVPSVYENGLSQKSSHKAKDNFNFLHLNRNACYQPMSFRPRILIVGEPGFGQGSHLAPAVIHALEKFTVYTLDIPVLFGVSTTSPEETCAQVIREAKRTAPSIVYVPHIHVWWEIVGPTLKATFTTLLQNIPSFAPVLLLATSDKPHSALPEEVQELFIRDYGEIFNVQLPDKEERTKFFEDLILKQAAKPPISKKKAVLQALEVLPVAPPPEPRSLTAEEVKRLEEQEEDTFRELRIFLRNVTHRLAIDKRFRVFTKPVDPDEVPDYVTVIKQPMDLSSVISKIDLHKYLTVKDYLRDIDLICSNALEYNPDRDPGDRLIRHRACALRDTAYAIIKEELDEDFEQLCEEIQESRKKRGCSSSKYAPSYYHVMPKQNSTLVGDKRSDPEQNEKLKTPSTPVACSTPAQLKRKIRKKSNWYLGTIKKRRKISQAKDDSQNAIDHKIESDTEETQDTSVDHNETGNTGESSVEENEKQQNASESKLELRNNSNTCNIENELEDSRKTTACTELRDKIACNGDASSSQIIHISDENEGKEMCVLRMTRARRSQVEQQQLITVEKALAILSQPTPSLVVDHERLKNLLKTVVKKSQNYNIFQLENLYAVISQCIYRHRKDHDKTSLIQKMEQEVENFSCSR

Histone H3/H4 complex (X. laevis, wild type, refolded) (from UniProt P84233 1-136; P62799 1-103)
HS-AFM: increase of the frequency of symmetry breaking of the ATAD2 Walker B hexameric ring (events per ring or per cumulative observation time) with H3/H4: 40% | HS-AFM: reversibility of symmetry breaking of the ATAD2 Walker B hexameric ring, without and with H3/H4: 30%
